# Earlier results in patent US8536129B2, “Treatment for anxiety” (NoNO Inc., priority 2007, dated 2013).
# Target: N-type calcium channels (Homo sapiens, UniProt Q00975)
# Settings: reported in co-pending application 60/904,507
# Chain of N-type calcium channels (Q00975 whole entry): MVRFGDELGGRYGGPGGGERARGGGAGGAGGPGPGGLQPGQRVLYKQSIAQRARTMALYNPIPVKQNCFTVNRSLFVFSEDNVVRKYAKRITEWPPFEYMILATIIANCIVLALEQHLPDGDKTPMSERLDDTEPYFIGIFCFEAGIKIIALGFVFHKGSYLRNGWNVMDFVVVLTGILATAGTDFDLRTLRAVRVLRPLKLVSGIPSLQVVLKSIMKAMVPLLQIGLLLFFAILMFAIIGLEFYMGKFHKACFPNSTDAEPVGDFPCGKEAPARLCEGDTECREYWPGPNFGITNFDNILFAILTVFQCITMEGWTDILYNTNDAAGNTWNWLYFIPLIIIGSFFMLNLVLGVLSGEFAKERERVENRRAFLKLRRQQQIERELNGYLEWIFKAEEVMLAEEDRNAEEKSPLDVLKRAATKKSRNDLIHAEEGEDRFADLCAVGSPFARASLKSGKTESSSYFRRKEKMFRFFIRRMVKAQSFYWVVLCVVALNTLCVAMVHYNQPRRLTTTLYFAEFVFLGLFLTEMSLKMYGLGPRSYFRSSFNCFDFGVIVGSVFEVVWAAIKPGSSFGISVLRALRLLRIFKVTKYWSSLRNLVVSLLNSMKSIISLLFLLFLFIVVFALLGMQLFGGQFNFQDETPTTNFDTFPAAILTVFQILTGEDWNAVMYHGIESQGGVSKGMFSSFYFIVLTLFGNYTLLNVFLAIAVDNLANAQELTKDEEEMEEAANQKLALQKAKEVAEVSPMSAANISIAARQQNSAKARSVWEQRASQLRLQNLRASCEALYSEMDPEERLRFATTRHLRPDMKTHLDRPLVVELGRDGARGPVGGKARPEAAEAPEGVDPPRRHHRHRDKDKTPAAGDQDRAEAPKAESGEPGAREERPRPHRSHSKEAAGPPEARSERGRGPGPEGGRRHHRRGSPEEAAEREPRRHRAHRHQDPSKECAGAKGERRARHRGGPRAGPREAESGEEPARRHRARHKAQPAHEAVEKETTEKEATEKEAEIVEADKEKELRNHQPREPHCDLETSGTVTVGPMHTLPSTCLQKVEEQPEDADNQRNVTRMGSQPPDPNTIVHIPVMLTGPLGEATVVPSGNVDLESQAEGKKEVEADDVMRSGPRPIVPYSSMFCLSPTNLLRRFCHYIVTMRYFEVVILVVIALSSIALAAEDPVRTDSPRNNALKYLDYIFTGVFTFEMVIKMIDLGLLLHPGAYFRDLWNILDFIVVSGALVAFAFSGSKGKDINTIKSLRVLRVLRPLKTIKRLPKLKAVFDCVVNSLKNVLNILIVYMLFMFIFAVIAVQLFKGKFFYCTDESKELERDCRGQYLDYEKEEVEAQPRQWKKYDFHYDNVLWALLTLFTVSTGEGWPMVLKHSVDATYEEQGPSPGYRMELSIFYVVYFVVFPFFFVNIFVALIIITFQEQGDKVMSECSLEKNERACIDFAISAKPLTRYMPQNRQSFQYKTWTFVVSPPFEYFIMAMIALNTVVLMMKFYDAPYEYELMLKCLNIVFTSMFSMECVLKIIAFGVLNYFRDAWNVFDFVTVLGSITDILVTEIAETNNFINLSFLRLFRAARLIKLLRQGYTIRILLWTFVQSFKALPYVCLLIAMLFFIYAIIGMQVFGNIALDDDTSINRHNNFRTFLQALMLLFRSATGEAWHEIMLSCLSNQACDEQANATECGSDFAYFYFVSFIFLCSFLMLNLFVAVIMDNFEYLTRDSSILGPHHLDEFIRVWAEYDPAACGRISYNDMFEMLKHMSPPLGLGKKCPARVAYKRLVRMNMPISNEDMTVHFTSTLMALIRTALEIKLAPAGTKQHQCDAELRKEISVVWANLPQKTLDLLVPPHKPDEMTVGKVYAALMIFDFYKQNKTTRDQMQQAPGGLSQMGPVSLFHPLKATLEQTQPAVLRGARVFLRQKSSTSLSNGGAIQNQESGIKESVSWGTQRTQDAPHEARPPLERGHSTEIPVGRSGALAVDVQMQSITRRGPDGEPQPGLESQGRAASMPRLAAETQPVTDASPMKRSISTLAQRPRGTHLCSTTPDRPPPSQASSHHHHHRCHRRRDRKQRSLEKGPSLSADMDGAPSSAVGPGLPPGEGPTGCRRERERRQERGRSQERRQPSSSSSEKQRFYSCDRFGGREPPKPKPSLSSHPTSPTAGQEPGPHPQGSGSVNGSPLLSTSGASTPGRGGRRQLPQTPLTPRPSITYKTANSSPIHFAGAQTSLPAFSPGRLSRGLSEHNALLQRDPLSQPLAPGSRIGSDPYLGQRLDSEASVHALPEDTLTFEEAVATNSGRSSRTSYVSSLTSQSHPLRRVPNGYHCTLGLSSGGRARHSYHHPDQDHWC
sequence,measurement,value
YGRKKRRQRRR [standard tat peptide],binding to and inhibition of N-type calcium channels,binds to and inhibits N-type calcium channels
